Substitutions are numbered along the chain they refer to. Names may count otherwise. One block for each binder: values may come before it.
Key:
[1] = target: T1, cyCD19 ECD (cynomolgus); assay: binding to CD19 ECD, assay not described
T1 construct: extracellular domain; also called cynomolgus CD19

[2] = target: T2, monomeric human CD19 antigen Fc(kih) fusion molecule (human, UniProt P0DOX5 223-449 = IgG part); assay: SPR ProteOn XPR36, Fab from bacterial supernatant captured via anti-human Fab, monomeric CD19-Fc analyte
T2 construct: also called monomeric CD19-Fc; human CD19-Fc(kih)

[3] = target: T3, human CD19 (recombinant, form not given) (human, UniProt P15391 20-291, limits assumed); assay: BIACORE (SPR), format not described
T3 construct: also called huCD19
T3 sequence (looked up): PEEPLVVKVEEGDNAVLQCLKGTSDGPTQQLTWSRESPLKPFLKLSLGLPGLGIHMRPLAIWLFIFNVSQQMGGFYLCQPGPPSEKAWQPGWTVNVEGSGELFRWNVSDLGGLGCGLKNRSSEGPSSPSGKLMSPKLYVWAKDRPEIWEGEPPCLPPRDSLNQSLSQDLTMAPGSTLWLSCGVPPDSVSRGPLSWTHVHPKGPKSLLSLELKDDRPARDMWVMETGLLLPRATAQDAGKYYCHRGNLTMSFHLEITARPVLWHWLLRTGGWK

[4] = target: T4, huCD19 ECD (human, UniProt P15391 20-291); assay: binding to CD19 ECD, assay not described
T4 construct: extracellular domain
T4 sequence (looked up): T3 sequence (looked up)

[5] = target: T3, human CD19 (recombinant, form not …); assay: relative binding after incubation, method not described
[6] = target: T5, human fibroblast activation protein (FAP) on cells (human, UniProt Q12884 1-760); assay: flow cytometry on FAP+ MV-3 cells
T5 construct: also called human FAP; huFAP

[7] = target: T5, human fibroblast activation protein …; assay: flow cytometry on FAP+ WM-266-4 cells
[8] = target: T6, mouse 4-1BB on activated mouse splenocytes (mouse, UniProt P20334 24-256); assay: flow cytometry on activated mouse splenocytes, 4-1BB+ CD4+ T cells
T6 construct: whole, on cells; also called murine 4-1BB

[9] = target: T6, mouse 4-1BB on activated mouse …; assay: flow cytometry on activated mouse splenocytes, 4-1BB+ CD8+ T cells

T6 sequence (P20334 24-256): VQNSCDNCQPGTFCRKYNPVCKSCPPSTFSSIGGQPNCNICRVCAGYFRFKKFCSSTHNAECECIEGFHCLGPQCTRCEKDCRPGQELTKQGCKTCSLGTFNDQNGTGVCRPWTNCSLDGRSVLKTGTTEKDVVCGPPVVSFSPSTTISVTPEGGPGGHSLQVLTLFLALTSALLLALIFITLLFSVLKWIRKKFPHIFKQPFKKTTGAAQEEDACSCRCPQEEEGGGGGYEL

- EC50 [1]: 0.313 µg/mL
B1: wild-type humanized anti-human CD19 antibody (var.0) (antibody, V domains shown)
VH: QVQLVQSGAEVKKPGASVKVSCKASGYTFTDYIMHWVRQAPGQGLEWMGYINPYNDGSKYTEKFNGKATMTSDTSISTAYMELSRLRSDDTAVYYCARGTYYYGSALFDYWGQGTTVTVSS
VL: DIVMTQTPLSLSVTPGQPASISCKSSQSLENSNGNTYLNWYLQKPGQSPQLLIYRVSKRFSGVPDRFSGSGSGTDFTLKISRVEAEDVGVYYCLQLTHVPYTFGQGTKLEIK
notes: humanized 8B8; also called variant 0; wt

- koff [2]: 0.000301 s⁻¹
B2: parental anti-CD19 clone 8B8, Fab in bacterial supernatant (Fab, V domains shown)
VH: B1 VH with N65Q, K67R, A68V
VL: B1 VL with S32P
notes: conflicting; also called Parental 8B8; parental humanized clone 8B8

- koff [2]: 3.24e-05 s⁻¹
B3: anti-CD19 clone 8B8-2B03, Fab in bacterial supernatant (Fab, V domains shown)
VH: B1 VH with M34T, N65Q, K67R, A68V, S105P, A106D
VL: B1 VL with N31T, N33T
notes: printed VL holds an X

- koff [2]: 5.75e-05 s⁻¹
B4: anti-CD19 clone 8B8-7H07, Fab in bacterial supernatant (Fab, V domains shown)
VH: B1 VH with N65Q, K67R, A68V, A106E
VL: B1 VL with N31T, N33T, L96A, V99I

- Kd [3]: 6 nM
- t1/2 [3]: 43.6 min
- EC50 [4]: 0.084 µg/mL
- EC50 [1]: 0.255 µg/mL
- human CD19 binding after pH 6.0 incubation [%] [5]: 99%
- human CD19 binding after pH 7.4 incubation [%] [5]: 95%
B5: humanized anti-human CD19 antibody var.5 (S27eP), named clone 8B8-018 (antibody, V domains shown)
VH: B1 VH with N65Q, K67R, A68V
VL: B1 VL with S32P
notes: 5 is named clone 8B8-018; also called variant 5

- koff [2]: 0.000258 s⁻¹
B6: anti-CD19 clone 8B8-5H09, Fab in bacterial supernatant (Fab, V domains shown)
VH: B1 VH with N65Q, K67R, A68V
VL: B1 VL with N31S, N33T, T97I, H98D, V99Y, Y101V

- koff [2]: 0.000195 s⁻¹
B7: anti-CD19 clone 8B8-5D08, Fab in bacterial supernatant (Fab, V domains shown)
VH: B1 VH with N65Q, K67R, A68V, A106E
VL: B1 VL with N31T, N33T, V99E

- Kd [3]: 45 nM
- t1/2 [3]: 4 min
- EC50 [4]: 0.089 µg/mL
- EC50 [1]: 0.435 µg/mL
- human CD19 binding after pH 6.0 incubation [%] [5]: 87%
B8: humanized anti-human CD19 antibody var.9 (S27eP/N28S) (antibody, V domains shown)
VH: B1 VH with N65Q, K67R, A68V
VL: B1 VL with S32P, N33S
notes: also called variant 9

- koff [2]: 4.37e-06 s⁻¹
B9: anti-CD19 clone 8B8-2B11, Fab in bacterial supernatant (Fab, V domains shown)
VH: B1 VH with N65Q, K67R, A68V, S105P, A106Q
VL: B1 VL with N31T, N33T, N35T, T97L, H98E, V99D

- EC50 [6]: 7.26 nM
- EC50 [7]: 5.14 nM
- EC50 [8]: 0.52 nM
- EC50 [9]: 0.87 nM
B10: FAP-targeted murine 4-1BB ligand trimer-containing Fc fusion antigen binding molecule Construct M.1 (Fc fusion)
chain 1: RTEPRPALTITTSPNLGTRENNADQVTPVSHIGSPNTTQQGSPVFAKLLAKNQASLSNTTLNWHSQDGAGSSYLSQGLRYEEDKKELVVDSPGLYYVFLELKLSPTFTNTGHKVQGWVSLVLQAKPQVDDFDNLALTVELFPSSMENKLVDRSWSQLLLLKAGHRLSVGLRAYLHGAQDAYRDWELSYPNTTSFGLFLVKPDNPWEGGGGSGGGGSRTEPRPALTITTSPNLGTRENNADQVTPVSHIGSPNTTQQGSPVFAKLLAKNQASLSNTTLNWHSQDGAGSSYLSQGLRYEEDKKELVVDSPGLYYVFLELKLSPTFTNTGHKVQGWVSLVLQAKPQVDDFDNLALTVELFPSSMENKLVDRSWSQLLLLKAGHRLSVGLRAYLHGAQDAYRDWELSYPNTTSFGLFLVKPDNPWEGGGGSGGGGSRADAAPTVSIFPPSSEQLTSGGASVVCFLNNFYPKDINVKWKIDGSERQNGVLNSWTDQDSKDSTYSMSSTLTLTKDEYERHNSYTCEATHKTSTSPIVKSFNRNECVPRDCGCKPCICTVPEVSSVFIFPPKPKDVLTITLTPKVTCVVVAISKDDPEVQFSWFVDDVEVHTAQTKPREEQINSTFRSVSELPIMHQDWLNGKEFKCRVNSAAFGAPIEKTISKTKGRPKAPQVYTIPPPKEQMAKDKVSLTCMITNFFPEDITVEWQWNGQPAENYDNTQPIMDTDGSYFVYSDLNVQKSNWEAGNTFTCSVLHEGLHNHHTEKSLSHSPGK
chain 2: RTEPRPALTITTSPNLGTRENNADQVTPVSHIGSPNTTQQGSPVFAKLLAKNQASLSNTTLNWHSQDGAGSSYLSQGLRYEEDKKELVVDSPGLYYVFLELKLSPTFTNTGHKVQGWVSLVLQAKPQVDDFDNLALTVELFPSSMENKLVDRSWSQLLLLKAGHRLSVGLRAYLHGAQDAYRDWELSYPNTTSFGLFLVKPDNPWEGGGGSGGGGSAKTTPPSVYPLAPGSAAQTNSMVTLGCLVKGYFPEPVTVTWNSGSLSSGVHTFPAVLQSDLYTLSSSVTVPSSTWPSQTVTCNVAHPASSTKVDKKIVPRDC
heavy: EVQLLESGGGLVQPGGSLRLSCAASGFTFSSHAMSWVRQAPGKGLEWVSAIWASGEQYYADSVKGRFTISRDNSKNTLYLQMNSLRAEDTAVYYCAKGWLGNFDYWGQGTLVTVSSAKTTPPSVYPLAPGSAAQTNSMVTLGCLVKGYFPEPVTVTWNSGSLSSGVHTFPAVLQSDLYTLSSSVTVPSSTWPSQTVTCNVAHPASSTKVDKKIVPRDCGCKPCICTVPEVSSVFIFPPKPKDVLTITLTPKVTCVVVAISKDDPEVQFSWFVDDVEVHTAQTKPREEQINSTFRSVSELPIMHQDWLNGKEFKCRVNSAAFGAPIEKTISKTKGRPKAPQVYTIPPPKKQMAKDKVSLTCMITNFFPEDITVEWQWNGQPAENYKNTQPIMKTDGSYFVYSKLNVQKSNWEAGNTFTCSVLHEGLHNHHTEKSLSHSPGK
light: EIVLTQSPGTLSLSPGERATLSCRASQSVSRSYLAWYQQKPGQAPRLLIIGASTRATGIPDRFSGSGSGTDFTLTISRLEPEDFAVYYCQQGQVIPPTFGQGTKVEIKRADAAPTVSIFPPSSEQLTSGGASVVCFLNNFYPKDINVKWKIDGSERQNGVLNSWTDQDSKDSTYSMSSTLTLTKDEYERHNSYTCEATHKTSTSPIVKSFNRNEC
notes: murine IgG1 DD/KK, DAPG; anti-FAP 28H1

- EC50 [6]: 6.9 nM
- EC50 [7]: 5.63 nM
- EC50 [8]: 0.42 nM
- EC50 [9]: 0.54 nM
B11: FAP-targeted murine 4-1BB ligand trimer-containing Fc fusion antigen binding molecule Construct M.2 (Fc fusion)
chain 1: B10 chain 1 with S34C, S143C, S250C, S359C
chain 2: B10 chain 2 with S34C, S143C
heavy: B10 heavy
light: B10 light
